Data taken from US20240342320A1 (GUANGZHOU GENBIONOVA MEDICAL TECHNOLOGY, published 2024).
Positions of bridges follow the written chain, without caps; N, C: chain ends. Non-standard residues stand in square brackets, D forms with d. Primed or numbered codes have the meaning given here. No end group written: not given here. PEG4′ = not defined here; NOTA′ = NOTA chelator

B1: RWYDAN (peptide)
peptide: RWYDAN
notes: Straight-chain peptide; also called P11
B2: RWYD-PEG4-K-NOTA (peptide)
peptide: RWYD[PEG4′]K-{NOTA′}
notes: The unlabelled form was used in MST; also called RD
B3: CRWYDENAC (peptide)
peptide: CRWYDENAC
modifications: disulfide 1-9 (inferred)
notes: also called P1
B4: RWYAEN (peptide)
peptide: RWYAEN
notes: Straight-chain peptide; also called P16
B5: CRAYDENAC (peptide)
peptide: CRAYDENAC
modifications: disulfide 1-9 (inferred)
notes: also called P3
B6: CRWYAENAC (peptide)
peptide: CRWYAENAC
modifications: disulfide 1-9 (inferred)
notes: also called P5
B7: CRWYDEAAC (peptide)
peptide: CRWYDEAAC
modifications: disulfide 1-9 (inferred)
notes: also called P7
B8: CAWYDENAC (peptide)
peptide: CAWYDENAC
modifications: disulfide 1-9 (inferred)
notes: also called P2
B9: RWYDANA (peptide)
peptide: RWYDANA
notes: Straight-chain peptide; also called P10
B10: RWYDE (peptide)
peptide: RWYDE
notes: Straight-chain peptide; also called P13
B11: (RWYD-PEG4)2-K-K-NOTA (peptide)
peptide: RWYD
modifications: not fully specified; each RWYD carries PEG4 at its C-terminus; two RWYD-PEG4 units are joined through lysine, followed by K-NOTA: (RWYD-PEG4)2-K-K-NOTA
notes: also called RD2; RD2 dimer
B12: RWYD (peptide)
peptide: RWYD
notes: also called P15; linear quaternary polypeptide RWYD
B13: CRWYDANAC (peptide)
peptide: CRWYDANAC
modifications: disulfide 1-9 (inferred)
notes: also called P6
B14: RWYDEA (peptide)
peptide: RWYDEA
notes: Straight-chain peptide; also called P12
B15: RWYDEN (peptide)
peptide: RWYDEN
notes: Straight-chain peptide; also called P9
B16: RWYDA (peptide)
peptide: RWYDA
notes: Straight-chain peptide; also called P14

Assays:
Integrin α6β4 protein [1] = experiment: MST, dye-labelled integrin α6β4, run 3
Description: (§1) The affinity between these 18 polypeptides and integrin α6β4 was detected by microscale thermophoresis (MST) method as follows: [0053] 1) Integrin α6β4 protein was dissolved to 800 nM, and polypeptide was dissolved to 100 μM. [0054] 2) A RED-tris-NTA second-generation dye was diluted to 100 nM by using the MO series RED-tris-NTA protein labeling kit. [0055] 3) 100 μl α6β4 protein was mixed with 50 μl dye and incubated at room temperature for 30 min, so that the α6β4 protein binds to the dye. [0056] 4) 10 μl polypeptide was transferred into a PCR tube, and was diluted with PBST (containing 0.05% Tween 20) at a ratio of 1:1 to 16 gradients of concentrations. [0057] 5) 3 μl protein/dye mixture was transferred into a PCR tube, 3 μl of 16 different concentrations of polypeptides was respectively added and mixed well. [0058] 6) The mixture was absorbed by capillary and loaded on machine (instrument model Monolith NT.115) to assay, parameters were set as 80% LED/excitation power and medium MST power. [0059] 7) MO. Affinity Analysis software was used to calculate the equilibrium dissociation constant KD between α6β4 protein and polypeptide by KD fitting mode.

Integrin α6β4 protein [2] = experiment: MST, ratio of mean KD against …
Description: as §1

Integrin α6β4 protein [3] = experiment: MST, dye-labelled integrin α6β4, run 2
Description: as §1

Integrin α6β4 protein [4] = experiment: MST, dye-labelled integrin α6β4, mean of 3 runs
Description: as §1

Integrin α6β4 protein [5] = experiment: MST, dye-labelled integrin α6β4, run 1
Description: as §1

Integrin α6β4 protein [6] = experiment: MST, integrin α6β4
Integrin α6β1 = experiment: MST (FIG. 2B), integrin α6β1
Integrin α6β4 protein [7] = experiment: MST, dye-labelled integrin α6β4; unrounded mean of the table's 0.02 µM
Description: as §1

Sequence of Integrin α6β1 (chain, as listed by the source, chain 1 of 2): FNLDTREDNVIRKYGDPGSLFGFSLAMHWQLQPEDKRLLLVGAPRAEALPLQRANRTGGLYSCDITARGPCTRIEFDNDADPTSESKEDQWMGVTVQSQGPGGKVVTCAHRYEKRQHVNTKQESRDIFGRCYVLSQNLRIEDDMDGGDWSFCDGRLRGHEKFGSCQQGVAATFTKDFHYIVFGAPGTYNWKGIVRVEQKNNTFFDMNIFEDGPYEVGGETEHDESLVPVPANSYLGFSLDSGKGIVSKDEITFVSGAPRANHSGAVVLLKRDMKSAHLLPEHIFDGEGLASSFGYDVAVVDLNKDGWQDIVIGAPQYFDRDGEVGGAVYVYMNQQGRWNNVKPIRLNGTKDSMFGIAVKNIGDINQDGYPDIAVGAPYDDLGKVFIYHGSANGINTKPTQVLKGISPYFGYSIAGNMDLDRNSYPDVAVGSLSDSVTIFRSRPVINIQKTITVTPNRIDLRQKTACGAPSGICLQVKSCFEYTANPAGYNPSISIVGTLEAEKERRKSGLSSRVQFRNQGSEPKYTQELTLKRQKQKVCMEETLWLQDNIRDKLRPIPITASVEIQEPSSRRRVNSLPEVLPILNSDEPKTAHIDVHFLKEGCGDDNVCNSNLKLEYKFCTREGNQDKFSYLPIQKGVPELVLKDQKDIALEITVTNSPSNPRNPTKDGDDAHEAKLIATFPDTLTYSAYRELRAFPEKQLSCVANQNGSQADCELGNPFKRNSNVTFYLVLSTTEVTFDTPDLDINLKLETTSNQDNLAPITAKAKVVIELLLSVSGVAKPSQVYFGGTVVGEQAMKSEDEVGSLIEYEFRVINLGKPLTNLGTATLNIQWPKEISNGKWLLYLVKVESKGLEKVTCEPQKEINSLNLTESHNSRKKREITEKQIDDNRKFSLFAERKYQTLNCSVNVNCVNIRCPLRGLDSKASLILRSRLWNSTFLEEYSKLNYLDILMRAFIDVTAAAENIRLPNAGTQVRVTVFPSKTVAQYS
Sequence of Integrin α6β1 (chain, as listed by the source, chain 2 of 2): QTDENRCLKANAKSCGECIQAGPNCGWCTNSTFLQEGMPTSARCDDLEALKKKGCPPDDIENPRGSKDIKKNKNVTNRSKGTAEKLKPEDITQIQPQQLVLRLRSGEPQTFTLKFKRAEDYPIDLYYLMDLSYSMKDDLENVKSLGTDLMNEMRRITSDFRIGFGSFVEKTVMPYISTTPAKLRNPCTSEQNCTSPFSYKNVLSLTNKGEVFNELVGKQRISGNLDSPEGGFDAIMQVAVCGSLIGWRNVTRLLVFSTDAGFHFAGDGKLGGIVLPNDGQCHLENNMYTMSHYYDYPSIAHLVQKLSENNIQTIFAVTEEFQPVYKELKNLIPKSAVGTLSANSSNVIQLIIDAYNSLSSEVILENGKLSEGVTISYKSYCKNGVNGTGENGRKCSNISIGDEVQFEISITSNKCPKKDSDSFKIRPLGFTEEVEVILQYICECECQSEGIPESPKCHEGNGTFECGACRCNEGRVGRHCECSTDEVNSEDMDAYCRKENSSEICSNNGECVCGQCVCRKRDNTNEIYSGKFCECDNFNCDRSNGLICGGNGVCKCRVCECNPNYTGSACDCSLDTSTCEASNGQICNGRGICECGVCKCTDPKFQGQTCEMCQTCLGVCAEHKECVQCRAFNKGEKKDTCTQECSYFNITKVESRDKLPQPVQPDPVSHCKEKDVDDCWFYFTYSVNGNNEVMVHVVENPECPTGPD

Binder | Kd (Integrin α6β4 protein [1]) | Affinity relative to RWY (Integrin α6β4 protein [2]) | Kd (Integrin α6β4 protein [3]) | Kd (Integrin α6β4 protein [4]) | Kd (Integrin α6β4 protein [5]) | Kd (Integrin α6β4 protein [6]) | fold increase of affinity against RWYD-PEG4-K-NOTA (Integrin α6β4 protein [6]) | Kd (Integrin α6β1) | Kd (Integrin α6β4 protein [7])
B1 | 35.7 µM | 0.22 fold | 23.2 µM | 31.2 µM | 34.6 µM |  |  |  | 
B2 |  |  |  |  |  | 0.642 µM |  |  | 
B3 | 5.81 µM | 1 fold | 6.52 µM | 6.97 µM | 8.59 µM |  |  |  | 
B4 | 9.74 µM | 0.9 fold | 6.08 µM | 7.71 µM | 7.31 µM |  |  |  | 
B5 | 13.8 µM | 0.52 fold | 11.8 µM | 13.3 µM | 14.4 µM |  |  |  | 
B6 | 0.65 µM | 17 fold | 0.22 µM | 0.41 µM | 0.36 µM |  |  |  | 
B7 | 1.37 µM | 11.2 fold | 0.25 µM | 0.62 µM | 0.25 µM |  |  |  | 
B8 | 3.58 µM | 1.06 fold | 12.1 µM | 6.58 µM | 4.03 µM |  |  |  | 
B9 | 12.4 µM | 0.23 fold | 17.5 µM | 30.7 µM | 62.1 µM |  |  |  | 
B10 | 99.6 µM | 0.11 fold | 78.8 µM | 64.4 µM | 14.7 µM |  |  |  | 
B11 |  |  |  |  |  | 0.0648 µM | ~10 fold |  | 
B12 | 0.026 µM | 327 fold | 0.018 µM | 0.02 µM | 0.02 µM |  |  | 0.0531 µM | 0.0218 µM
B13 | 3.83 µM | 1.61 fold | 7.99 µM | 4.34 µM | 1.21 µM |  |  |  | 
B14 | 1.74 µM | 2.2 fold | 2.49 µM | 3.16 µM | 5.26 µM |  |  |  | 
B15 | 13.1 µM | 0.66 fold | 8.73 µM | 10.5 µM | 9.69 µM |  |  |  | 
B16 | 4.22 µM | 1.38 fold | 4.69 µM | 5.06 µM | 6.28 µM |  |  |  | 
